Laboratory results published in article doi:10.1101/2023.05.17.540984.
Read-outs that look alike come from different tables or passages of the source.

T1: ELK1 (UniProt P19419 1-428)
T1 sequence: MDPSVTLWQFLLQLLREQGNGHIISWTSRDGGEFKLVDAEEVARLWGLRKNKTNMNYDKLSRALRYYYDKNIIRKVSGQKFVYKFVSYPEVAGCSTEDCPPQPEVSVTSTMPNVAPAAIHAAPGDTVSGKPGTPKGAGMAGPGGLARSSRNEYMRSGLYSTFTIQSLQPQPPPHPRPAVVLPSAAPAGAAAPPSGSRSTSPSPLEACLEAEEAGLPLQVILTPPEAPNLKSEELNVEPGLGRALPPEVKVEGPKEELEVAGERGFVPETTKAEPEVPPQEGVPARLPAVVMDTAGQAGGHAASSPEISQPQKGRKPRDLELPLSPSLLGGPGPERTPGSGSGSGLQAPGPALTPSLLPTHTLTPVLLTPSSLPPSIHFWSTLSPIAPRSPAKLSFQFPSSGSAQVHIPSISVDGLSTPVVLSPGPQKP


Experiments:
ELK1 [1] = target: T1, ELK1; assay: EMSA
ELK1 [2] = target: T1, ELK1; assay: EMSA; remark: listed apart in the source

Row | Binder | binding result (ELK1 [1]) | binding result (ELK1 [2])
1 | rs8040749-G probe (centenarian allele) (dsDNA) DNA 1: CCTGCCTTCCGGAAGTTCATG DNA 2: CATGAACTTCCGGAAGGCAGG | binds | 
2 | rs8040749-A probe (reference allele) (dsDNA) DNA 1: CCTGCCTTCCAGAAGTTCATG DNA 2: CATGAACTTCTGGAAGGCAGG |  | no binding
